From FireProtDB (doi:10.1007/s10930-015-9600-7)

B1: Carboxymethylenebutenolidase, P0A115 (parent)
chain: MLTEGISIQSYDGHTFGALVGSPAKAPAPVIVIAQEIFGVNAFMRETVSWLVDQGYAAVCPDLYARQAPGTALDPQDERQREQAYKLWQAFDMEAGVGDLEAAIRYARHQPYSNGKVGLVGYCLGGALAFLVAAKGYVDRAVGYYGVGLEKQLKKVPEVKHPALFHMGGQDHFVPAPSRQLITEGFGANPLLQVHWYEEAGHSFARTSSSGYVASAAALANERRLDFLAPLQSKKP

Variants of: B1
Conditions: Pseudomonas knackmussii (strain DSM 6978 / CCUG 54928 / LMG 23759 / B13), pH 7.5, Thermal, Hepes 50 mM, structure 4U2B, whole UniProt chain shown

Variant | Tm (Activity, NaCl 75 mM) | change of melting temperature, mutant - wild type (higher = more stable) (Activity, NaCl 75 mM) | Tm (fluorescence) | change of melting temperature, mutant - wild type (higher = more stable) (fluorescence)
MLTEGISIQSYDGHTFGALVGSPAKAPAPVIVIAQEIFGVNAFMRETVSWLVDQGYAAVCPDLYARQAPGTALDPQDERQREQAYKLWQAFDMEAGVGDLEAAIRYARHQPYSNGKVGLVGYCLGGALAFLVAAKGYVDRAVGYYGVGLEKQLDKVPEVKHPALFHMGGQDHFVPAPSRQLITEGFGANPLLQVHWYEEAGHSFARTSSSGYVASAAALANERRLDFLAPLQSKKP [K154D] | 53.9 °C | 2.7 °C | 54.4 °C | 2.9 °C
MLTEGISIQSYDGHTFGALVGSPAKAPAPVIVIAQEIFGVNAFMRETVSWLVDQGYAAVCPDLYARQAPGTALDPQDERQREQAYKLWQAFDMEAGVGDLEAAIRYARHQPYSNGKVGLVGYCLGGALAFLVAAKGCVDRAVGYYGVGLEKQLKKVPEVKHPALFHMGGQDHFVPAPSRQLITEGFGANPLLQVHWYEEAGHSFARTSSSGYVASAAALANERRLDFLAPLQSKKP [Y137C] | 49.3 °C | -1.9 °C | 50.8 °C | -0.7 °C
MLTEGISIQSYDGHTFGALVGSPAKAPAPVIVIAQEIFGVNAFMRETVSWLVDQGYAAVCPDLYARQAPGTALDPQDERQREQAYKLWQAFDMEAGVGDLEAAIRYARHLPYSNGKVGLVGYCLGGALAFLVAAKGYVDRAVGYYGVGLEKQLDKVPEVKHPALFHMGGQDHFVPAPSRQLITEGFGANPLLQVHWYEEAGHSFARTSSSGYVASAAALANERRLDFLAPLQSKKP [Q110L K154D] | 54.2 °C | 3.1 °C | 54.8 °C | 3.3 °C
